# According to patent US20040229237:
# Tested on: mouse MIST (Mast Cell-specific Immunoreceptor Signal Transducer)
substance,measurement,value
Lyn kinase,tyrosine phosphorylation of MIST,MIST was evidently phosphorylated by Lyn kinase among tyrosine kinases present in the mast cell
